These results are taken from patent publication US20170101472A1 (Regeneron, published 2017).

What is called Kd is the concentration at which binding is half-saturated. In general, koff refers to the first-order rate constant of dissociation. Broadly, the kon is the second-order rate constant of association. The EC50 is the concentration giving half of the maximal effect. Higher therefore signals a less potent agent.

Residue numbers refer to the chain shown, from its start. Numbers in names are those of the source.

B1: H4H17826P2 (antibody, human IgG4, V domains shown)
VH: EVQLVESGGGLVQPGGSLRLSCAASGFTFSSYEMNWVRQAPGKGLEWVSYISSSGNTKDYAGSVKGRVTISRDNAKNLLYLQMNSLRAEDTAVYHCARDGGHYDILTGSMSYYYYALDVWGQGTTVTVSS
VL: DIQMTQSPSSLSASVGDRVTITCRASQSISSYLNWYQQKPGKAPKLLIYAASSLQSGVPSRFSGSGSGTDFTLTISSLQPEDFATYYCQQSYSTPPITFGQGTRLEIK
notes: H4H = human IgG4 Fc with S108P hinge mutation
B2: H4H17819P (antibody, human IgG4, V domains shown)
VH: EVQLVESGGGLVQPGGSLRLSCVASGFTFSLYAMTWVRQVPGKGLEWVSTISGSGGGTYYTDSVKGRFTISRDNSKNTLYLQMNSLRADDTAVFYCTKESTTGTYSYFYGMDVWGQGTTVTVSS
VL: DIQMTQSPSSLSASVGDRVTITCRASQTISSYLNWYQQKPGKAPKLLIYAASSLQSGVPSRFSGSGSGTDFTLTLSGLQPEDFATYYCQQSYSTPLTFGGGTKVEIK
notes: as for B1
B3: H4H17823P (antibody, human IgG4, V domains shown)
VH: EVQLLESGGGLVQPGGSLRLSCAASGFTFRSYAMSWVRQAPGKGLEWVSVISGGGGRTYYTDSVKGRFTISRDNSKSMLYLQMNSLRAEDTAIYYCAKERVTGIDHYYYGVDVWGQGTTVTVSS
VL: B2 VL with T28S, A51T, G66A, T74A, L75I, G77S, S93T
notes: as for B1
B4: H4H15483P (antibody, human IgG4, V domains shown)
VH: QVQLQQWGAGLLPPSETLSLICAVYGGSFSGYYWSWIRQPPGKGLEWIGEINHRGSTNYNPSLKSRATISVDTSKNQFSLKLSSVTAADTAVYYCSRGEDYYDSSGYSYYFDYWGQGTLVTVSS
VL: EIVLTQSPATLSLSPGERATLSCRASQSVSSYLAWYQQKPGQAPRLLIYDASNRATGIPARFSGSGSGTDFTLTISSLEPEDFAVYYCQQRSNWPLTFGGGTKVEIK
notes: as for B1
B5: H4H17828P2 (antibody, human IgG4, V domains shown)
VH: EVQLVESGGGLVQPGGSLRLSCAASGFTFKTYAMSWVRQAPGRGLEWVSGISGSGSTSYYADSVKGRFTISRDNYKKTLSLQMNSLRAEDTAVYYCALDIMATVGGLFNNWGQGTLVTVSS
VL: not shown
notes: as for B1
B6: H4sH15462P (antibody, V domains shown)
VH: QVQLVQSGAEVKKPGASVKVSCKASGYTFTNYYIHWVRQAPGQGLDWMGIINPGGGNTNYAQKFLGRVTMTRDTSTTTVYMELSSLRSEDTAIYYCARENWNSYFDNWGQGTLVTVSS
VL: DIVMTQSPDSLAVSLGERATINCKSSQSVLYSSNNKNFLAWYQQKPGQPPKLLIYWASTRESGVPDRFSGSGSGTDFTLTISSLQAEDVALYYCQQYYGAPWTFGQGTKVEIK
notes: H4sH = human IgG4 Fc with 2 or more amino acid changes as disclosed in US20140243504
B7: H4H15462P (antibody, human IgG4, V domains shown)
VH: B6 VH
VL: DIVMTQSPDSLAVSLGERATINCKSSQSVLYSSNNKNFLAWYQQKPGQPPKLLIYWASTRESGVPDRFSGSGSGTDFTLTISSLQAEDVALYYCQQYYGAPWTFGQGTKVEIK
notes: as for B1

The target in the first test is T1, recombinant human LAG3 expressed with a C-terminal myc-myc-hexahistidine tag (human, UniProt P18627 29-450).
T1 construct: also called hLAG3-mmh; hLAG3.mmh
Nature of the test: SPR, mAb captured, 25 C. As for the experimental part:
(§1) The BiaCore sensor surface was derivatized with either a polyclonal rabbit anti-mouse antibody (GE, # BR-1008-38) or with a monoclonal mouse anti-human Fc antibody (GE, # BR-1008-39) to capture approximately 50-85 RUs of anti-LAG3 monoclonal antibodies, expressed with either a mouse Fc or a human Fc, respectively. […] The binding of the LAG3 reagents to captured monoclonal antibodies was monitored for 4 minutes while their dissociation from the antibodies was monitored for 8 minutes in HBST running buffer (0.01 M HEPES pH 7.4, 0.15 M NaCl, 3 mM EDTA, 0.05% v/v Surfactant P20). Experiments were performed at 25° C. and 37° C. Kinetic association (kₐ) and dissociation (kd) rate constants were determined by processing and fitting the data to a 1:1 binding model using Scrubber 2.0c curve fitting software. Binding dissociation equilibrium constants (KD) and dissociative half-lives (t_{1/2}) were then calculated from the kinetic rate constants as: KD (M)=kd/kₐ and t_{1/2} (min)=[ln2/(60*kd)].
Background: Surface plasmon resonance follows binding to a sensor surface in real time, without labels.
In the case of B1, the equilibrium dissociation constant (Kd) was determined as 10.2 nM, the koff worked out at 0.00457 s⁻¹, the kon worked out at 450000 M⁻¹ s⁻¹ and the t1/2 turned out to be 2.5 min.

With B2, the Kd came to 0.391 nM, the koff was found to be 0.000443 s⁻¹, the on-rate (kon) stood at 1.13e+06 M⁻¹ s⁻¹ and the t1/2 worked out at 26 min.

As to B3, the dissociation constant (Kd) turned out to be 0.429 nM, the koff worked out at 0.000447 s⁻¹, the on-rate constant (kon) was 1.04e+06 M⁻¹ s⁻¹ and the t1/2 was determined as 25.8 min.

Take B4: the Kd stood at 1.97 nM, the koff stood at 0.00037 s⁻¹, the kon was found to be 188000 M⁻¹ s⁻¹ and the t1/2 worked out at 31.2 min.

Take B5: the Kd is 2.31 nM, the koff was 0.00141 s⁻¹, the kon came to 612000 M⁻¹ s⁻¹ and the t1/2 came to 8.2 min.

On to B6, for which the dissociation constant Kd was 6.51 nM, the off-rate (koff) turned out to be 0.00697 s⁻¹, the on-rate (kon) was found to be 1.07e+06 M⁻¹ s⁻¹ and the t1/2 came out at 1.7 min.

As for B7, the dissociation constant (Kd) amounted to 5.75 nM, the dissociation rate constant (koff) stood at 0.0054 s⁻¹, the on-rate (kon) is 939000 M⁻¹ s⁻¹ and the t1/2 was determined as 2.1 min.

In the next test the target is T2, recombinant human LAG3 expressed with a C-terminal mouse IgG2a mFc tag (human).
T2 construct: Called dimeric; also called hLAG3-mFc; hLAG3 dimer
T2 chain: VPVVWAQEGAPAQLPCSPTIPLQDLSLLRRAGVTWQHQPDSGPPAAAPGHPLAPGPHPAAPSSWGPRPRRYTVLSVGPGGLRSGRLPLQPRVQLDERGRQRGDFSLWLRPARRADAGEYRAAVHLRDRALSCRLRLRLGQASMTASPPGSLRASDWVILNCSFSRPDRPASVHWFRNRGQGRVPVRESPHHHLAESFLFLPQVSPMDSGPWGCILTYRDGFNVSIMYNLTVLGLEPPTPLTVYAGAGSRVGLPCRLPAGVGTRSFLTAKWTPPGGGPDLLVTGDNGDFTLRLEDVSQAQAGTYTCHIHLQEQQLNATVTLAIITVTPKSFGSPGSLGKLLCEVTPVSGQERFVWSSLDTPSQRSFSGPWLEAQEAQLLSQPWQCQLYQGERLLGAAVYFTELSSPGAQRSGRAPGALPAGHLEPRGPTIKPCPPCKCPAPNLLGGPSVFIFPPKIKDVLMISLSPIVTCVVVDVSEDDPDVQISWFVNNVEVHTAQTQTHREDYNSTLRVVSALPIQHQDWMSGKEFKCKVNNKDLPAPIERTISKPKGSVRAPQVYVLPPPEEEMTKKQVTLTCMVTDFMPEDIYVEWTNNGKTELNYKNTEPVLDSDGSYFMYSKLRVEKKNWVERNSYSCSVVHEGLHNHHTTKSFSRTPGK
Nature of the test: SPR, mAb captured, 25 C. As for the experimental part:
as §1
On to B1, for which the Kd was determined as 0.817 nM, the koff came out at 0.000564 s⁻¹, the kon was 691000 M⁻¹ s⁻¹ and the t1/2 was found to be 20.5 min.

Regarding B2, the Kd is 0.124 nM, the koff amounted to 0.00018 s⁻¹, the kon came to 1.45e+06 M⁻¹ s⁻¹ and the t1/2 is 64.2 min.

As to B3, the Kd was 0.174 nM, the koff worked out at 0.000218 s⁻¹, the association rate constant (kon) turned out to be 1.26e+06 M⁻¹ s⁻¹ and the t1/2 turned out to be 52.9 min.

On to B4, for which the Kd was no more than 0.00745 nM, the koff was no more than 1e-05 s⁻¹, the kon was 1.34e+06 M⁻¹ s⁻¹ and the t1/2 was no less than 1160 min.

Consider B5, for which the dissociation constant Kd came out at 0.245 nM, the dissociation rate constant (koff) came to 0.00046 s⁻¹, the association rate constant (kon) was 1.88e+06 M⁻¹ s⁻¹ and the t1/2 turned out to be 25.1 min.

For B6, the dissociation constant (Kd) amounted to 0.814 nM, the off-rate (koff) turned out to be 0.0019 s⁻¹, the on-rate (kon) was 2.34e+06 M⁻¹ s⁻¹ and the t1/2 came to 6.1 min.

B7: the dissociation constant Kd was 1.01 nM, the off-rate (koff) was 0.00203 s⁻¹, the kon was found to be 2.02e+06 M⁻¹ s⁻¹ and the t1/2 was determined as 5.7 min.

For a further test, the target named is T3, human LAG3 expressed on HEK293 cells (human, UniProt P18627 23-525).
T3 construct: also called hLAG3; HEK293/hLAG3
T3 sequence: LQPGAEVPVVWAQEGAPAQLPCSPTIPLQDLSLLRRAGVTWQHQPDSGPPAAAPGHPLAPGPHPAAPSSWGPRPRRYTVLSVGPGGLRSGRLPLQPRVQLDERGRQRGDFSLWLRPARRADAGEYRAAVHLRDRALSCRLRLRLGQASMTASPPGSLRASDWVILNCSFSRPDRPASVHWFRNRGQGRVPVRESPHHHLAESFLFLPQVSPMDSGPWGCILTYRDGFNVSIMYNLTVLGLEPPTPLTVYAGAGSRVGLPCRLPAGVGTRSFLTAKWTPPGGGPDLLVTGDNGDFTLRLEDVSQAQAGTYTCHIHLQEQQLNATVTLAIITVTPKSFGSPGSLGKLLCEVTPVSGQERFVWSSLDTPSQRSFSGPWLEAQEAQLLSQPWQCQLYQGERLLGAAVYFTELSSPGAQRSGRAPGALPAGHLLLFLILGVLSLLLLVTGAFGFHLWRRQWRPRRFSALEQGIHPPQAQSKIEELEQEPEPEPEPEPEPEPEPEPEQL
Briefly: flow cytometry, HEK293/hLAG3 cells. As for the experimental part: The serially diluted antibodies were added to the cell suspension and incubated for 15-30 minutes on ice. The cells were centrifuged and pellets were washed with staining buffer to remove unbound antibodies. […] The cells were centrifuged and pellets were washed with staining buffer to remove unbound secondary F(ab′)2 and fixed overnight with a 1:1 dilution of Cytofix (BD Biosciences, #554655) and staining buffer. Following day, fixed cells were centrifuged and pellets were washed with staining buffer, resuspended and filtered. Fluorescence measurements were acquired on HyperCyt® cytometer and analyzed in ForeCyt™ (IntelliCyt; Albuquerque, N. Mex.) to determine the mean fluorescence intensities (MFI). The EC₅₀ values were calculated from a four-parameter logistic equation over an 11-point response curve using GraphPad Prism. EC₅₀ was defined as the concentration of antibody at which 50% of maximal binding signal is detected. The MFI ratio for each antibody was calculated by dividing the MFI at 100 nM by MFI at 0 nM of antibody concentration.
In general terms: A flow cytometer gives signals particle by particle.
For B1, a half-maximal response (EC50) required 3.86 nM and the “Ratio of MFI (100 nM/0 nM)” value came to 414.

Take B2: the EC50 was found to be 2.79 nM and the “Ratio of MFI (100 nM/0 nM)” value came to 436.

Consider B3, for which the half-maximal effective concentration (EC50) turned out to be 1.25 nM and the “Ratio of MFI (100 nM/0 nM)” value came out at 305.

For the molecule B4, it took 2.31 nM to reach a half-maximal effect (EC50) and the “Ratio of MFI (100 nM/0 nM)” value turned out to be 206.

B5: the EC50 came to 2.65 nM and the “Ratio of MFI (100 nM/0 nM)” value amounted to 355.

On to B6, for which the concentration for a half-maximal effect (EC50) stood at 0.665 nM and the “Ratio of MFI (100 nM/0 nM)” value was 182.

Consider B7, for which the half-maximal effective concentration (EC50) is 0.3 nM and the “Ratio of MFI (100 nM/0 nM)” value came out at 62.6.

In a further test the target is T3, human LAG3 expressed on HEK293 cells. Briefly: electrochemiluminescence cell binding. As for the experimental part:
To investigate the ability of a panel of anti-LAG3 monoclonal antibodies to bind cell-surface expressed LAG3, an in vitro binding assay utilizing human and monkey LAG3 expressing cell lines in an electrochemiluminescence based detection platform [Meso Scale Diagnostics, Rockville, Md.—(MSD)] was developed.
Experiments were carried out according to following procedure. Cells from the three cell lines described above were rinsed once in 1×PBS buffer without Ca²⁺/Mg²⁺ followed by 10-minute incubation at 37° C. with Enzyme Free Cell Dissociation Solution. […] Approximately 10,000 cells per well in the cell-washing buffer were seeded into the 96-well carbon electrode plates (MULTI-ARRAY high bind plate, MSD) and incubated for 1 hour at 37° C. to allow the cells to adhere. Nonspecific binding sites were blocked by 2% BSA (w/v) in PBS for 1 hour at room temperature. […] The plates were then washed to remove the unbound antibodies using an AquaMax2000 plate washer (MDS Analytical Technologies). The plate-bound antibodies were detected with a SULFO-TAG™-conjugated anti-human IgG antibody (MSD) for 1 hour at room temperature. After washes, the plates were developed with the Read Buffer (MSD) according to manufacturer's recommended procedure and the luminescent signals were recorded with a SECTOR Imager 6000 (MSD) instrument. The direct binding signals (in relative light units—RLU) were analyzed as a function of the antibody concentration and the data were fitted with a sigmoidal (four-parameter logistic) dose-response model using Graph Pad Prism™ software. The potency of each antibody was determined by calculating EC₅₀.
Turning to B1, the “Ratio of 100 nM antibody binding HEK293-hLAG3 to HEK293 cells” value (shortened to “Ratio … to HEK293 cells”) is 7.

As for B2, the “Ratio … to HEK293 cells” value stood at 22.7.

B3: the “Ratio … to HEK293 cells” value came to 5.3.

In the case of B4, the “Ratio … to HEK293 cells” value came to 6.6.

As to B5, the “Ratio … to HEK293 cells” value was 8.7.

Turning to B6, the “Ratio … to HEK293 cells” value was found to be 6.8.

Take B7: the “Ratio … to HEK293 cells” value was 2.3.
